For this experiment, the target named is Fas/Apo-1 receptor (human) (UniProt P25445). Nature of the experiment: cell-based or functional assay.
UniProt P25445, sequence (P25445 26-335): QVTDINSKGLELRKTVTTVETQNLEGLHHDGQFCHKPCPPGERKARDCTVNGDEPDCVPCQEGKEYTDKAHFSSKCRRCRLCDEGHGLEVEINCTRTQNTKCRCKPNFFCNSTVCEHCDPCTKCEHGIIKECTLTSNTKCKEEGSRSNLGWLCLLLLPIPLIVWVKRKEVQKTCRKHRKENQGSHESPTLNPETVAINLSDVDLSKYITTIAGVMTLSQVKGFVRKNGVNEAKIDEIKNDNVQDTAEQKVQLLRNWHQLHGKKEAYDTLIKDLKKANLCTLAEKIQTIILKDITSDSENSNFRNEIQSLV

For the substance anti-Apo-1 monoclonal antibody, CH11, the % apoptotic cells, 9D cells, CH11 1 ug/ml, 24 h (control 22.5) came out at 90.8%; the % apoptotic cells, Jurkat cells, CH11 1 ug/ml, 24 h (control 5.9) amounted to 18.1%; the % apoptotic cells, Raji cells, CH11 1 ug/ml, 24 h (control 35.9) was 83.7%.
